Results from the DeepSol protein solubility set.

assay: soluble on expression in E. coli; label from the status in PepcDB or PDB records

Sequence | soluble on expression in E. coli
MATLVVNKLGAGVDSGRQGSRGTAVVKVLECGVCEDVFSLQGDKVPRLLLCGHTVCHDCLTRLPLHGRAIRCPFDRQVTDLGDSGVWGLKKNFALLELLERLQNGPIGQYGAAEESIGISGESIIRCDEDEAHLASVYCTVCATHLCSECSQVTHSTKTLAKHRRVPLADKPHEKTMCSQHQVHAIEFVCLEEGCQTSPLMCCVCKEYGKHQGHKHSVLEPEANQIRASILDMAHCIRTFTEEISDYSRKLVGIVQHIEGGEQIVEDGIGMAHTEHVPGTAENARSCIRAYFYDLHETLCRQEEMALSVVDAHVREKLIWLRQQQEDMTILLSEVSAACLHCEKTLQQDDCRVVLAKQEITRLLETLQKQQQQFTEVADHIQLDASIPVTFTKDNRVHIGPKMEIRVVTLGLDGAGKTTILFKLKQDEFMQPIPTIGFNVETVEYKNLKFTIWDVGGKHKLRPLWKHYYLNTQAVVFVVDSSHRDRISEAHSELAKLLTEKELRDALLLIFANKQDVAGALSVEEITELLSLHKLCCGRSWYIQGCDARSGMGLYEGLDWLSRQLVAAGVLDVA | soluble
MGFTLKSLEFLQGVEPFRIDENHENEGASEEEEVLISAETDAGMSLMLEWKMRLSEDSDQCTTCNCPVDFGDRAVLLEHYQSLFHRTNTLRKARNMTVYTEEDFEGIENSENDLTSSQTTIGLESDDEEFDALLLPANRSFFIKNGSVFSVPRNILHVGERDVSSVTFLRPFDCAIFLWNGGHFAAAMFENDKMTVQKSFHRYVARAKQGGVQSQHDSGGKGAAKSAGAQLRRYNEQKMKEEIQSIMSSWKSRLQKTPLLFIRCAAYHRNIFFEADAGIETRDDRIRTIPFETKRPNIDEISDCWQRLQQVSEHGAESDFRAEMLEVREKRKKLARKVAGKKRKDGGMQMICEWSDDDENEDISKEKKTHHIKVRTIKKPEETVVQWPRLDDEWRQKTYNYVRQDSVEALKEHLASLNEDVTSEANDYLRNAKIPPNRSTFLHVSAANDARKCLKYFLEEVNCDSSTKDGAGLPPYSSSANSDVKSIFIDYRVKNETAGNWARTHIPEPKKKVELTEEQEREQAERKKEKKARQKEKEKLKKEIAKRDVEEMEERQKYVNMSEREKRALAVDRRLAGLPPILRCHQCGVQLPPTPFQYSHYNFCSTSCVAEHRKANPQ | not soluble
MSTPSLYEMLTFSFSGELPLEQISERDQLILSVMDNMQRIINCRAGTLAHLPDYGLPDLSLIHQGMAAGIHGLMRQIEETLLRYEPRLSQIQVELLPQPRPGHLNYLIHAQLPDTGWIRFDGVFSPEGRIVLRHLKQQERAY | not soluble
MGHHHHHHSHMVAWKRQLILFGGFHESTRDYIYYNDVYAFNLDTFTWSKLSPSGTGPTPRSGCQMSVTPQGGIVVYGGYSKQRVKKDVDKGTRHSDMFLLKPEDGREDKWVWTRMNPSGVKPTPRSGFSVAMAPNHQTLFFGGVCDEEEEESLSGEFFNDLYFYDATRNRWFEGQLKKLRSGWRRRTRKRTVRRLRAPRVGSTTKTAERRAVRRTESPCQGRLASAVPTSAQDPAVLSEALGASVRPDAQERAEGGWPRPGCELSPMV | not soluble
VPRIAEVRDAAEPSSEEQRARHVRMLEAAIELATEKELARVQMHEVAKRAGVAIGTLYRYFPSKTHLFVAVMVDQIDRMGVGFKKSAPPGESPQDAVYNVLVRATRGLLRRPALSTAMIQSTSTANVASVPDAGKVDRAFRQIMLDAAGIEHPTEEDLTALRLLVQLWFGVIQSCLNGRVSIPDAESDIRRACDLLLVNLSHR | soluble
MSLKRVLLLGGAGFIGYHLGRHLVERSDCRVTLVDNFFRSKQDEELDTLLQSSAVDIVEGDLTERSTFDQLDDEYDHVYALAAVVGVGYTEDMPEEVWRINTAITLNTFEWLRESSVSRVLFASTSETYAGTVEEFGAEIPTPEDVPLSITDITQPRFTYAVTKMLGEAGIAHYAQAYDFEQVTVRFHNVYGPRMGFKHVIPQVVERFHEAEDPFTVYGYDQTRAFCHVDDAVRGVVQAMETPEAAGRTYHIGDDRHEITIETLIRYIGDLMDFHGEYEQGPSHAGSVSRRCPDVDRAREVFGYEPQVHWKEGVRETVEWYADYYRSGREVFEEGHHHHHH | soluble
MGSANGKTLGEVWKRELNLLDKRQFELYKRTDIVEVDRDTARRHLAEGKVDTGVAVSRGTAKLRWFHERGYVKLEGRVIDLGCGRGGWCYYAAAQKEVSGVKGFTLGRDGHEKPMNVQSLGWNIITFKDKTDIHRLEPVKCDTLLCDIGESSSSSVTEGERTVRVLDTVEKWLACGVDNFCVKVLAPYMPDVLEKLELLQRRFGGTVIRNPLSRNSTHEMYYVSGARSNVTFTVNQTSRLLMRRMRRPTGKVTLEADVILPIGTRSVGSSSHHHHHH | soluble
MEDDMSVVDNIRFTFLYIEFYSMGRTWVYPESVIPYSIFRYIEKGKAELCIDGEEIIVEENQIVYIPQGCKMSCRALGESFEFYSLRFTTSVFYEGEDMLAEYYGIPRVSVNEGEDVYFKEIYKWVKKDSMVKKCFVRGNLDLLIGSLAMHGNKVDKVTGDFVETIEEKSLRDRNSKKNEQIDPRIYIVADYIILHPSEKYTPQKMAEMADLSKQRFSSLFKINMGKTPMEYVREIRLTTAARALLVSNDNINDIAYACGYEDTNYFIREFKSAFGFTPNQYRKVARE | not soluble
MKIVAIGAIPFSIPYTKPLRFASGEVHAAEHVLVRVHTDDGIVGVAEAPPRPFTYGETQTGIVAVIEQYFAPALIGLTLTEREVAHTRMARTVGNPTAKAAIDMAMWDALGQSLRLSVSEMLGGYTDRMRVSHMLGFDDPVKMVAEAERIRETYGINTFKVKVGRRPVQLDTAVVRALRERFGDAIELYVDGNRGWSAAESLRAMREMADLDLLFAEELCPADDVLSRRRLVGQLDMPFIADESVPTPADVTREVLGGSATAISIKTARTGFTGSTRVHHLAEGLGLDMVMGNQIDGQIGTACTVSFGTAFERTSRHAGELSNFLDMSDDLLTVPLQISDGQLHRRPGPGLGIEIDPDKLAHYRTDN | soluble
MGSDKIHHHHHHMEKLEKTVDMNIQQMINLSVLELVKLGLKYGIFKAVSKKISYIDLLNQVDVPNKPLLKKLIDHLKLLGIIEETPTHLLLNSFSYEIRFPKEEHMYLLPDWIPSFEEIYRMVDFALITPNHPHVLMDFDKDADFWDLRLSSTFHEAYRILIAKLGEIGEGSRVLDIGCGSASPAYFGKLVGEEGEYVGVDYSPALLEIAKNRTEGLPVKLKEMDASLIKPKNKYDVAIMSFVLEYIENRRSALRNALDSLESGGKLIIVDAFKDEFRNVEALEFFEGLNSAFREYPSKKYIKEVILDEGFEVKFGDYGKAILLIEKL | not soluble
MLEANVYDNFNPNYYNISDFSMPNGKKEKRGLPIPKARCQVINYELWETGYLYTSSATLTVSVEVGDIVQILFPEVVPIEEALGKKKKLNLDMVYLVTDVDESNKATLKNYFWAMIESLDVPNAITKTTNFAIIDYLIDPNKNNLMSYGYFFNSSIFAGKATINRKAETSSAHDVAKRIFSKVQFQPTTTIQHAPSETDPRNLLFINFASRNWNRKRITTRVDIKQSVTMDTETIVERSAYNFAVVFVKNKATDDYTDPPKMYIAKNNGDVIDYSTYHGDGTDLPDVRTAKTLFYDRDDHGNPPELSTIKVEISPSTIVTRLIFNQNELLPLYVNDLVDIWYEGKLYSGYIADRVKTEFNDRLIFVESGDKPNVI | soluble
MAHHHHHHMLKRSGTICSLQSVVRGAAKIAAAIVDASVGNVNVVDNSHNGEGGTPARAAGRSHTSSPPEVLPRSVVTQLHESKDDLRKNAVYMSVPSTRITRAAGFASLFVQLGWDHLVDRNGEGILSSQSHKRVVNTLRRMRGVVLKLGQMLSIQDPATVPQYVLQLFEQVRDSAYAMSREQLDQTLAKEYENINWRKDFFLEFDDEPIGAASIGQVHRATIKGEGDTQIEHVAVKVQYPGVATSIDSDIANLKMLISLHLLPPGMFVDRILQDLRQEFLLECRYKIEAAKQVRYAALIKQEPELQEVFVVPKVYESLSTENVLVTQFVTGIPVDRLANISGVQDLKNYVAERMLLLTLTELFRWRFMQTDPNYANFLFDAEKNKISLIDFGAAREYSKEFVKDYMDVVAAAARQDRDRIIEKSIKLGFLTGNEMKPMLDAHAASVELLGRPFRHHDKPFDFSAENLPSKIQEHVPTIIKLRLRPPPTPVYSLHRRISGIILLATKLKATVNSGEMFWNIYNSCRTNYE | not soluble
MSPLSSGLLGDLDPTSDRAVFRQIADQLREAIDRGRFREGEKLPSEAELVDHYGVSRMTVRNSFSILQGEGLVHAEHGKGVFVRPRPPVRRLASDRFARRHREQGKSAFIVEADAVGSHPKVDSLEVKEEKASQDISTRLGSVRRVLARRRRYLLDGRPVEFATSYLPLDIARGTQIAEPNPGPGGIYARLEELGHRLDHFEEEIRARMPSPAEVKTLHLAAGVPVIHLIRTAFDTEGRAVEVCDTVMAADAYVLSYQLPAT | not soluble
MAGSATVEKRLDFGLLGPLQMTIDGTPVPSGTPKQRAVLAMLVINRNRPVGVDALITALWEEWPPSGARASIHSYVSNLRKLLGGAGIDPRVVLAAAPPGYRLSIPDNTCDLGRFVAEKTAGVHAAAAGRFEQASRHLSAALREWRGPVLDDLRDFQFVEPFATALVEDKVLAHTAKAEAEIACGRASAVIAELEALTFEHPYREPLWTQLITAYYLSDRQSDALGAYRRVKTTLADDLGIDPGPTLRALNERILRQQPLDAKKSAKTTAAGTVTVLDQRTMASGQQAVAYLHDIASGRGYPLQAAATRIGRLHDNDIVLDSANVSRHHAVIVDTGTNYVINDLRSSNGVHVQHERIRSAVTLNDGDHIRICDHEFTFQISAGTHGGT | soluble
MGSDKIHHHHHHMPIHLIWGNDYEACNREIEELINSVIDSSWKSFNYSQLDGNDPKQNLRALEEAQSAPLGSGGRIVLVRRSPFCNGCSIELGNKLEQVIKLIPDKTHLILSNANKPDKRLKTTKLIEKSIQSNTLSQEKSFILPLPWDINGQRNLVKNNLERLNLKMNYETIDLIVESIGNDSSLINTELQKLSLFSEAVNTNLTTDKPREISKELVKKLIQNNSTNALEIANSLLKGEKIIALNKIQSLLKNGEPALRLITTLTGQSRGWLWVHLLDSQGNQDVKEIAKLAGIANPKRIFVIRKQIQGKSLGTLLELMKKLLKIEASIKSGIKPIDSFKDNLLTDSKILANN | not soluble
MSLAQFYSAKRRVTTRQIITVKVNDLDSFGQGVARHNGKALFIPGLLPEESAEVIITEDKKQFARARVSRRLNDSPERETPRCPHFGVCGGCQQQHVSIALQQRSKSAALARLMKHEVNDIIAGAPWGYRRRARLSLNCPPDKPLQMGFRKAGSSDIVNVEQCPVLAPQLAALLPRIRACLASLHGTRHLGHVELVQAGSGTLMILRHTAPLSAADKEKLERFSHSEGLSLFLAPFSEILETVSGEAPWYDSHGLRLAFSPRDFIQVNEAVNQQMVARALEWLDVRAEDRVLDLFCGMGNFTLPLATRAASVIGVEGVPALVEKGRENAIRNGLHNVTFFHENLEEDVTKQPWAKNGFDKVLLDPARAGATGVMRHIIKLKPIRIVYVSCNPATLARDSEALVNAGYEVTRLAMLDMFPHTGHLESMVLFERMEGHHHHHH | soluble
MSLQEVKKTYFVSKPGTLISMMTEEEANQVTHLTLTGKINAVDFRHLRDEFKNLQVLDIANASISMYSGKEGTYPDKFYIYMPNFVPAYAFCKMENGTAKGKSTLKKIILSEKIKNIEDAAFMGCENLNICQIKKKTPPNLLPEALADSITAIFVPLGASDEYRLKNRWDNFAFIEGEPLEAKIEVGALSTLENEIQKAGLQPKEINFLTIEGKLDAADFKLIRDYMPNLVAVDIEKTNATAIPDFTFSQKKYLLRIRLPHGLKSIGQRAFSNCGRLCGTVELPESITAIEYGAFMGCDRLRYVVAHGDKITTIGDNLFGEGKNKLIYKREGHHHHHH | soluble
MGSSHHHHHHSSGRENLYFQGHMSANVQEAANAAIEPASFVKVPMPEPPSSLQQLINDWQLIKHREGGYFKETDRSPYTMEVEKPVNGGSGNTEMVTRNQSTLIYYLLTPDSPIGKFHKNINRIIHILQRGKGQYVLVYPDGQVKSFKVGFDYKNGEVSQWVVPGGVFKASFLLPNEEFDNGFLISEVVVPGFDFEDHTFLKGEDELKHLVGPEKAAELAFLA | soluble
